Reference: publication PMC11236980, “PARG is essential for Polθ-mediated DNA end-joining by removing repressive poly-ADP-ribose marks”

Key:
Polθ-hel = Polθ-hel (human, UniProt O75417 1-894); assay: EMSA; PARP1 or NAD+ omitted; 40 nM protein, 10 nM DNA; 25 mM Tris-HCl pH 7.5, 5 mM MgCl2, 30 mM NaCl, 5% glycerol, 0.1 mg/mL BSA, 1 mM DTT; PARylation 20 min 37 °C, binding at room temperature; 8% native PAGE 0.5x TBE; settings: protein: recombinant; label: 5'-Cy3; single strand
PARP1 = PARP1 (UniProt P09874 1-1014); assay: EMSA; 25 nM PARP1; 25 mM Tris-HCl pH 7.5, 5 mM MgCl2, 30 mM NaCl, 5% glycerol, 0.1 mg/mL BSA, 1 mM DTT; PARylation 20 min 37 °C, binding at room temperature; 8% native PAGE 0.5x TBE; settings: protein: recombinant; tags: N-terminal His; label: 5'-Cy3; single strand
PARP1, sequence (P09874 whole entry): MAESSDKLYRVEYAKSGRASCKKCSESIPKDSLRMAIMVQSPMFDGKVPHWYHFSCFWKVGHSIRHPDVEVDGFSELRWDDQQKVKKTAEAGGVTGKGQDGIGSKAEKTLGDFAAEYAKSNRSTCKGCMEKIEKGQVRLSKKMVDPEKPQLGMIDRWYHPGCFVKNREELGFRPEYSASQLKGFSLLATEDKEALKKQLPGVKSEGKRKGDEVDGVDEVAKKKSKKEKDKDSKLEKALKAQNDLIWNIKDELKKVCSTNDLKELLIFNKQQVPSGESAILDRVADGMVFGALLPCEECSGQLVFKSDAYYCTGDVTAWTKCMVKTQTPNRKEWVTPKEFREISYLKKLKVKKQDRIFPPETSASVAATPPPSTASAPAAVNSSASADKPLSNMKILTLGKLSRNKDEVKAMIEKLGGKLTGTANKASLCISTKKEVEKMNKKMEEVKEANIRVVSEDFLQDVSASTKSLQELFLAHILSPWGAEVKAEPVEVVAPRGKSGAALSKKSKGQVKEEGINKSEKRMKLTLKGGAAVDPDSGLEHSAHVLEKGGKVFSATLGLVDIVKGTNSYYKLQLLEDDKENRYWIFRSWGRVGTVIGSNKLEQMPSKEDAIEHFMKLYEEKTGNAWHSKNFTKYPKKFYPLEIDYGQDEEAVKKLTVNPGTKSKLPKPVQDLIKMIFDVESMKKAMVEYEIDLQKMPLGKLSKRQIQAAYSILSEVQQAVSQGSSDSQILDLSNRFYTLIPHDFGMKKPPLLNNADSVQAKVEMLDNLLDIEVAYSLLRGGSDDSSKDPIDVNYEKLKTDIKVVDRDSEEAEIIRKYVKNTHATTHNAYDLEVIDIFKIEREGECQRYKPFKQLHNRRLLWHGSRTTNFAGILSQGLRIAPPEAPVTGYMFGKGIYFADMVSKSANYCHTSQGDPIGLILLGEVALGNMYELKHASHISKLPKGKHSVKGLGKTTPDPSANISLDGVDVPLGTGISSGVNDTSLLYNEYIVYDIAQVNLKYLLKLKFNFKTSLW

Polθ-hel, sequence (O75417 1-894): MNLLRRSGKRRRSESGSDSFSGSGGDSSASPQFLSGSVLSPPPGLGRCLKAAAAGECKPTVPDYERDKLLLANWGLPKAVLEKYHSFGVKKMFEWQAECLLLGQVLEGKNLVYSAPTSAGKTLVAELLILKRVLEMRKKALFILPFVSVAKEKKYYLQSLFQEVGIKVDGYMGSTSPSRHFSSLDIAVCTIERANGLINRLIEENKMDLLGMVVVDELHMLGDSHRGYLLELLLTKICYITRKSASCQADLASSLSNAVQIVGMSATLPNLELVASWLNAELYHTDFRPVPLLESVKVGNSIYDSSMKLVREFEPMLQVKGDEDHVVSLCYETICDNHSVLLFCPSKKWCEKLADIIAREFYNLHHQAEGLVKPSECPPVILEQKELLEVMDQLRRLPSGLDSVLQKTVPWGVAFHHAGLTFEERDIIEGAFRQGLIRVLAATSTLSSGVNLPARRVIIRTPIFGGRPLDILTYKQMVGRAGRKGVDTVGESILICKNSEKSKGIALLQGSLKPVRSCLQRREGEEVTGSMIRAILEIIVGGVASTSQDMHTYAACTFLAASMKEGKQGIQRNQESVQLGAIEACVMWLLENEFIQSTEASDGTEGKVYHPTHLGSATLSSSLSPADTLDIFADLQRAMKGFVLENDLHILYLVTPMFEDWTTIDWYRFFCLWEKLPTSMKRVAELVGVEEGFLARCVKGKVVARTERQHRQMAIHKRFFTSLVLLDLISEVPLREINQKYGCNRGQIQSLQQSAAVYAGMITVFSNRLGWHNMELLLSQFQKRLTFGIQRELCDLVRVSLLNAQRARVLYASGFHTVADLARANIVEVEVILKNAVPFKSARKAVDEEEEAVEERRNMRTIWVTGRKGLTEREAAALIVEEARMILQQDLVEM

TTTTTTTTTTTTTTTTTTTTTTTTTTTTT (ssDNA) [RP316-Cy3]: binds (Polθ-hel); no binding (PARP1).
